Publication doi:10.1101/475152

Biological target: Mlh1-Pms1 DLDMMR (Saccharomyces cerevisiae (yeast; …, UniProt P38920;P14242 1-347+374-769;1-436+488-873, internal_change;internal_change)
Assay: filter binding

B1: 49-mer homoduplex AO3142/AO3144 (dsDNA)
DNA 1: GGGTCAACGTGGGCAAAGATGTCCTAGCAAGTCAGAATTCGGTAGCGTG
DNA 2: CACGCTACCGAATTCTGACTTGCTAGGACATCTTTGCCCACGTTGACCC
  binding result: binds
